# What was measured:
# [1] = biological target: mouse CD5 on murine T cells (mouse) (UniProt P13379); assay: cell-based or functional assay
# [2] = biological target: human CD5 on human ACH2 immortalized T cells (human) (UniProt P06127); assay: cell-based or functional assay
# UniProt P06127, sequence (P06127 25-495 limits assumed): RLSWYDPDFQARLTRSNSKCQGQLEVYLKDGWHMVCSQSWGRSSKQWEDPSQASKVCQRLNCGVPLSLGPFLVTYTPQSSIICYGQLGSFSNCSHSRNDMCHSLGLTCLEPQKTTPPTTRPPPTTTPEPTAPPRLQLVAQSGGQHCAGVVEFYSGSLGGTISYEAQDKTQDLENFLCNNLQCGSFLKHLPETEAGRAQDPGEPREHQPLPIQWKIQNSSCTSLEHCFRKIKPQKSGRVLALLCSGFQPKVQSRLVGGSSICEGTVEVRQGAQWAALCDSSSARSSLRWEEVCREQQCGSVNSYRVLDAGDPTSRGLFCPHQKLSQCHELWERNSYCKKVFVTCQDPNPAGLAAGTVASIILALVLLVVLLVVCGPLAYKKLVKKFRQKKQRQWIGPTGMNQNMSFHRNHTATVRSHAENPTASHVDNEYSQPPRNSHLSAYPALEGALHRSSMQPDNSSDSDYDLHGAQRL
# UniProt P13379, sequence (P13379 24-494 limits assumed): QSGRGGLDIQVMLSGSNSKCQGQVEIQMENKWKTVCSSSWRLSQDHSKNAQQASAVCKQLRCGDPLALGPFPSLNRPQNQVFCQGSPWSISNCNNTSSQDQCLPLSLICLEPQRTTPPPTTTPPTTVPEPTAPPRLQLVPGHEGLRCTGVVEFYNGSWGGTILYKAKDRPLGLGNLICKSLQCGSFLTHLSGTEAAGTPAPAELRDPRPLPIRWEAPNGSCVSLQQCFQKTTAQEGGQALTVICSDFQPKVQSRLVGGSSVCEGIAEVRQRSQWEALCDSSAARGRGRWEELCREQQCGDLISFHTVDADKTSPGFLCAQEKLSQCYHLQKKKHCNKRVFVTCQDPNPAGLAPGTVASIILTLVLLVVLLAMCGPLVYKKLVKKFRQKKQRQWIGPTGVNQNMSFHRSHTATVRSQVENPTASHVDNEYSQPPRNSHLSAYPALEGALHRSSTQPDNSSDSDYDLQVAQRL
substance,measurement,setting,value
control isotype matched IgG conjugated to LNP-mRNA (antibody),percent of murine T cells receiving mRNA in vitro from IgG/LNP (flow cytometry),[1],7%
"mouse anti-human CD5, clone UCHT2 (BioLegend), conjugated to LNP-mRNA (antibody)",percent gene transfer (GFP) in human ACH2 T cells with CD5/LNP-GFP in vitro,[2],89 to 93%
"purified rat anti-mouse CD5, clone 53-7.3 (BioLegend), conjugated to LNP-mRNA (antibody)",ZsGreen expression in CD4+ splenocytes of Ai6 mice 24 h after 30 ug CD5/LNP-Cre,[1],81.1%
same,ZsGreen expression in CD8+ splenocytes of Ai6 mice 24 h after 30 ug CD5/LNP-Cre,[1],75.6%
same,percent FAPCAR T cells in spleen 48 h after CD5/LNP-FAPCAR injection,[1],17.5 to 24.7%
same,percent of murine T cells expressing FAPCAR after 48 h in vitro with CD5/LNP-FAPCAR (flow cytometry),[1],83%
same,percent of murine T cells expressing GFP after 48 h in vitro with CD5/LNP-GFP (flow cytometry),[1],78%

# From patent publication US20230312713A1
